In patent publication US20240254220A1, “COMBINED THERAPY USING ANTI-CD300C ANTIBODY” (CentricsBio, Inc., priority 2021, published 2024):

Target: T1, CD300c antigen (Homo sapiens, UniProt Q08708)
T1 construct: purchased Sino Biological 11832-H08H
T1 sequence (Q08708 21-183): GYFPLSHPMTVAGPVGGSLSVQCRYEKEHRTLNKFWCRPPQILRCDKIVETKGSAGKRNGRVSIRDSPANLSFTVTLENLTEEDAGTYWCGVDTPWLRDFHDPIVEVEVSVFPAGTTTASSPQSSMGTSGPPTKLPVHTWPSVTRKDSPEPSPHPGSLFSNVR
Assay: Binding ELISA of anti-CD300c monoclonal antibodies to CD300c antigen
Settings: CD300c antigen coated at 8 μg/mL, absorbance 450 nm
Procedure: In order to identify the antigen-binding ability of the anti-CD300c monoclonal antibodies produced in Example 1, binding ELISA was performed. Specifically, a CD300c antigen (11832-H08H, Sino Biological) or a CD300a antigen (12449-H08H, Sino Biological) in a coating buffer (0.1 M sodium carbonate, pH 9.0) was dispensed into an ELISA plate at a concentration of 8 μg/mL per well, followed by incubation at room temperature for 3 hours to allow the antigen to be bound to the plate. The unbound antigens were removed by washing three times using phosphate buffered saline-Tween 20 (PBST), and then 300 μL of PBST supplemented with 5% bovine serum albumin (BSA) was added to each well, followed by incubation at room temperature for 1 hour and then washing using PBST. Then, an anti-CD300c monoclonal antibody was diluted in quadruplicate and added thereto, followed by incubation for 1 hour at room temperature for antigen binding. After 1 hour, washing was performed three times using PBST to remove unbound anti-CD300c monoclonal antibody, and then 4 μg/mL of an antibody for detection (HRP conjugated anti-Fc IgG) was added, followed by incubation again at room temperature for 1 hour. […] Then, 2 N sulfuric acid solution was added to terminate the development reaction, and the absorbance was measured at 450 nm to identify the antibodies specifically binding to the CD300c antigen.

B1: CL8: anti-CD300c monoclonal antibody, VH3VL1 phage library, VH SEQ ID 331, VL SEQ ID 332 (antibody, V domains shown)
VH: EVQLLESGGGLVQPGGSLRLSCAASGFTFSSYAMSWVRQAPGKGLEWVSAISGSGGSTYYADSVKGRFTISRNNSKNTLYLQMNSLRAEDTAVYYCARSGRYADLTSGGQGTLVTVSS
VL: QSVLTQPPSASGTPGQRVTISCSGSNSNIGNNYVSWYQQLPDTPPKLLIYDNNKRPSGVPDRFSGSKSGTSASLAISGLRSEDEADYYCSSYTSSSTVMFGGGTKLTVL
modifications: CL8 Heavy Chain Variable Region; CL8 Light Chain Variable Region
In the case of B1, the “EC50” value is reported as 49.7 µg/mL.
